Experimental data: IntAct's records for PubMed 22555612

Target: hdac2_mouse Hdac2 (UniProt P70288)
Sequence (P70288 whole entry): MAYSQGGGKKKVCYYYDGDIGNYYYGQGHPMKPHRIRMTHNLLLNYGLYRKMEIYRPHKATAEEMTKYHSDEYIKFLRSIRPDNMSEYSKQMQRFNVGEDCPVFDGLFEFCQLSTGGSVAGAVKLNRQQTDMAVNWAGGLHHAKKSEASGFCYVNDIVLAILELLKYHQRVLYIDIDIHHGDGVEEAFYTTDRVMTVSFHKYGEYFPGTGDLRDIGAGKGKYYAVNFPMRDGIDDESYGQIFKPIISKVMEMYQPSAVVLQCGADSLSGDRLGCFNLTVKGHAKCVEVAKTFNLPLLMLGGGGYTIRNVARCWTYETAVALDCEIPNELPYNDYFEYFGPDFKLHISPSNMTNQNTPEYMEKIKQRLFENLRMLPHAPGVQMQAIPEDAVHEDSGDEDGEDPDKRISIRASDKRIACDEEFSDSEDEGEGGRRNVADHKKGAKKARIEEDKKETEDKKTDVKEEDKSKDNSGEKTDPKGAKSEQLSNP

Sequence of PR domain zinc finger protein 1 (Homo sapiens), O75626-2 K778R (O75626 37-825, stated change not applied): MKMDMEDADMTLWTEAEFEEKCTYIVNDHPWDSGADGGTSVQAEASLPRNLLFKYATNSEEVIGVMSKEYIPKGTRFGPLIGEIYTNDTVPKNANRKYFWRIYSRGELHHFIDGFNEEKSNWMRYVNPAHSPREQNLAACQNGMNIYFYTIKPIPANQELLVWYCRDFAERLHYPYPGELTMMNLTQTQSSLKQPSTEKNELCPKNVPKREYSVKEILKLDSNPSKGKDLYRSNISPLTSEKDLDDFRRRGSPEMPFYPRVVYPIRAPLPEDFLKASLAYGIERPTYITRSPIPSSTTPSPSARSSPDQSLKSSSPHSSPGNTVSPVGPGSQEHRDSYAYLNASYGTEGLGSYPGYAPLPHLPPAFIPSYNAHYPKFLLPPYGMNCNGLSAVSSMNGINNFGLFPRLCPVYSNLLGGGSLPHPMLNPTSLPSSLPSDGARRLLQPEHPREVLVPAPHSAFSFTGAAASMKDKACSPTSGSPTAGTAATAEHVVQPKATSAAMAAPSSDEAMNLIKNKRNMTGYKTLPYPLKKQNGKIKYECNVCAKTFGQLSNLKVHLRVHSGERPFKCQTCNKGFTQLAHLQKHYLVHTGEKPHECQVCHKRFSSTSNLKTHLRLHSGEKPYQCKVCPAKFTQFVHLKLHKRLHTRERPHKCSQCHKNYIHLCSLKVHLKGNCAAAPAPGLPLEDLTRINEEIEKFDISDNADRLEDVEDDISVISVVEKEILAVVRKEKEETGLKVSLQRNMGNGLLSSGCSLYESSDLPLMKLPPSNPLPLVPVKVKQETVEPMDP

PR domain zinc finger protein 1 (Homo sapiens), O75626-2 K778R
effect of a mutation on the interaction: decreasing interaction
